Tests used:
[1] = target: SOP2 gelatine extracted from blue whiting skin and bone
[2] = target: SOP1 gelatine extracted from blue whiting skin and bone
[3] = target: Angiotensin-converting enzyme-I (ACE-1)
[4] = target: Renin
[5] = target: Angiotensin-converting enzyme-I (ACE-1); remark: listed apart in the source

% ACE-I inhibition at 1 mg/mL [3] [%] | % ACE-1 inhibition at 1 mg/ml [5] [%] | Substance | other results
– | – | Alcalase (EC number 3.4.21.62) (from UniProt P00780) (enzyme) | degree of hydrolysis (DH) after 4 h, pH-stat method [1]: 2.54%; degree of hydrolysis (DH) after 4 h, pH-stat method [2]: 1.87%
28.9 | – | Blue whiting 3 KDa permeate (blood water fraction) (pool or library) | % Renin inhibition at 1 mg/mL [4]: 10.6%
33.1 | – | Blue whiting 10 KDa permeate (blood water fraction) (pool or library) | –
59.4 | – | Blue whiting retentate (blood water fraction) (pool or library) | –
83.9 | – | Mackerel 3 KDa permeate (blood water fraction) (pool or library) | % Renin inhibition at 1 mg/mL [4]: 21%
96.9 | – | Mackerel 10 KDa permeate (blood water fraction) (pool or library) | –
95.4 | – | Mackerel retentate (blood water fraction) (pool or library) | –
– | – | Papain (EC number 3.4.22.2) (from UniProt P00784) (enzyme) | degree of hydrolysis (DH) after 4 h, pH-stat method [1]: 19.4%; degree of hydrolysis (DH) after 4 h, pH-stat method [2]: 20.4%
– | 26.8 | SOP1 gelatine alcalase hydrolysate (blue whiting skin and bone) (pool or library) | –
– | 73.1 | SOP1 gelatine papain hydrolysate (blue whiting skin and bone) (pool or library) | –
– | 25.1 | SOP2 gelatine alcalase hydrolysate (blue whiting skin and bone) (pool or library) | –
– | 71.1 | SOP2 gelatine papain hydrolysate (blue whiting skin and bone) (pool or library) | –
– | 84.2 | ≤3 KDa peptide fraction of the SOP1 gelatine alcalase hydrolysate (pool or library) | –
– | 80.5 | ≤3 KDa peptide fraction of the SOP1 gelatine papain hydrolysate (pool or library) | –
– | 87.1 | ≤3 KDa peptide fraction of the SOP2 gelatine alcalase hydrolysate (pool or library) | –
– | 84.5 | ≤3 KDa peptide fraction of the SOP2 gelatine papain hydrolysate (pool or library) | –

Source: US20230389573A1
